Measurements published in paper PMC6021402, “Dissecting ribosomal particles throughout the kingdoms of life using advanced hybrid mass spectrometry methods” (Nature Communications, 2018).

Experiments:
[1] = target: chloroplastic ribosomal protein L10 from S. oleracea (S. oleracea (spinach)); experiment: native MS; chloroplastic 70S ribosomes introduced into a QE-UHMR mass spectrometer; intact stalk complexes released by in-source trapping activation and their mass measured; quadrupole isolation and HCD fragmentation ejected a single L12 (pseudo-MS3)
[2] = target: the molecule itself; experiment: as above

B1: chloroplastic ribosomal protein L12 from S. oleracea (natural protein, S. oleracea (spinach), UniProt P02398 57-189, looked up)
chain: AVEAPEKIEQLGTQLSGLTLEEARVLVDWLQDKLGVSAASFAPAAAVAAPGAPADAAPAVEEKTEFDVSIDEVPSNARISVIKAVRALTSLGLKEAKELIEGLPKKLKEGVSKDDAEDAKKQLEDAGAKVSIV
notes: 50S ribosomal protein L12, chloroplastic, Spinacia oleracea; Six copies in each stalk complex; also called L7/L12; source: endogenous, in chloroplastic 70S ribosomes purified from spinach leaves (sucrose cushion, sucrose gradient)
stoichiometry N [1]: 6 L12 per L10 | binding result [2]: binds
